Results published in the Human Domainome abundance scans (Beltran et al. 2025).
± gives the uncertainty stated by the source.

B1: Tripartite motif-containing protein 6, residues 93 to 134; numbered along this chain, Q9C030 (parent)
chain: KAVLCADHGEKLQLFCQEDGKVICWLCERSQEHRGHHTFLVE
B2: Cell division cycle and apoptosis regulator protein 1, residues 625 to 674; numbered along this chain, Q8IX12 (parent)
chain: ISTPTHWSKLDPKTMKVNDLRKELESRALSSKGLKSQLIARLTKQLKVEE

Variants of: B1
Assay: abundance fitness (aPCA) (normalised: wild type 0, dead -1); higher = more abundant; growth selection in yeast, the domain comes from the species named
Details: Homo sapiens

Abundance fitness: each site, then its substitutions
V3: M 0.141 ± 0.069; K 0.046 ± 0.058; A -0.007 ± 0.054; H -0.349 ± 0.17; G 0.127 ± 0.041; C 0.098 ± 0.13; T 0.005 ± 0.067; R -0.273 ± 0.057; L -0.437 ± 0.16; S -0.003 ± 0.061; Y -0.153 ± 0.21; W -0.353 ± 0.083; E -0.067 ± 0.09; Q -0.306 ± 0.092; I -0.135 ± 0.1; P -0.485 ± 0.18
C5: Y -0.602 ± 0.11; K -0.789 ± 0.12; E -0.615 ± 0.064; A -1.06 ± 0.14; F -0.871 ± 0.21; T -0.954 ± 0.12; N -0.922 ± 0.17; H -0.768 ± 0.32; G -0.664 ± 0.054; R -0.978 ± 0.092; P -0.777 ± 0.11; V -0.839 ± 0.092; Q -0.812 ± 0.18; W -1.06 ± 0.12; D -0.807 ± 0.21; M -0.769 ± 0.12; L -0.999 ± 0.089
D7: T 0.165 ± 0.07; S 0.006 ± 0.056; I -0.034 ± 0.25; K -0.007 ± 0.061; P -0.297 ± 0.088; M 0.091 ± 0.068; N -0.085 ± 0.17; R -0.06 ± 0.051; L 0.132 ± 0.058; F -0.38 ± 0.29; E 0.048 ± 0.053; W -0.173 ± 0.05; Q 0.172 ± 0.071; C 0.055 ± 0.085; G -0.291 ± 0.043; A 0.095 ± 0.046
K1: T -0.255 ± 0.42; D 0.292 ± 0.18; Y -0.01 ± 0.17; E 0 ± 0.055; C -0.698 ± 0.2; W -0.722 ± 0.14; R -0.296 ± 0.053; A -0.273 ± 0.17; L -0.439 ± 0.086; N -0.296 ± 0.22; V -0.191 ± 0.083; M -0.156 ± 0.082; G -0.193 ± 0.043; F -0.36 ± 0.2; S -0.142 ± 0.11; Q -0.32 ± 0.23
A2: W -0.04 ± 0.052; C -0.167 ± 0.089; V 0.065 ± 0.051; T 0.136 ± 0.046; N 0.066 ± 0.27; S 0.045 ± 0.063; R 0.067 ± 0.047; E 0.195 ± 0.055; Y -0.153 ± 0.11; L -0.013 ± 0.06; I -0.018 ± 0.12; M 0.264 ± 0.061; D -0.031 ± 0.14; G 0.198 ± 0.045; P -0.071 ± 0.063; K 0.133 ± 0.068
H8: E -0.518 ± 0.072; C -0.584 ± 0.13; A -0.706 ± 0.058
A6: S 0.055 ± 0.056; C -0.156 ± 0.073; E -0.244 ± 0.11; W -0.48 ± 0.068; R -0.035 ± 0.044; G -0.196 ± 0.043; K -0.011 ± 0.055; Y -0.19 ± 0.12; F -0.158 ± 0.071; N -0.306 ± 0.28; Q -0.087 ± 0.066; H -0.43 ± 0.47; D -0.11 ± 0.058; L -0.215 ± 0.052; T -0.242 ± 0.087; P -0.056 ± 0.1; I -0.321 ± 0.2
L4: T -0.066 ± 0.054; G -0.175 ± 0.041; S -0.217 ± 0.059; V 0.011 ± 0.05; E -0.126 ± 0.066; Y 0.047 ± 0.23; N 0.224 ± 0.19; R -0.082 ± 0.043; Q -0.272 ± 0.065; F 0.141 ± 0.09; K -0.148 ± 0.085; M 0.195 ± 0.064; W -0.199 ± 0.047; C -0.189 ± 0.09; A -0.165 ± 0.051; D -0.223 ± 0.49

Variants of: B2
Assay: as above
Details: Homo sapiens

Abundance fitness: each site, then its substitutions
E49: A -0.867 ± 0.053; I -0.943 ± 0.19; D -0.41 ± 0.048; W -1 ± 0.11; K -1.19 ± 0.22; M -0.937 ± 0.056; V -0.906 ± 0.067; G -0.919 ± 0.044; C -0.606 ± 0.089; P -0.86 ± 0.068; R -0.935 ± 0.046; L -0.983 ± 0.043; Q -0.592 ± 0.056; N -0.909 ± 0.12; Y -1.21 ± 0.32
K47: T -0.131 ± 0.062; V -0.168 ± 0.037; Y -0.261 ± 0.057; W -0.334 ± 0.053
V48: Q -0.06 ± 0.042; W -0.178 ± 0.05; L -0.06 ± 0.045; H -0.106 ± 0.07; E -0.023 ± 0.051; I 0.054 ± 0.059; R -0.02 ± 0.036; T -0.073 ± 0.055; F 0.018 ± 0.074; Y -0.207 ± 0.082; N 0.031 ± 0.046; K 0.009 ± 0.053; D -0.114 ± 0.067; P -0.795 ± 0.046; C -0.113 ± 0.038; S -0.059 ± 0.033; A -0.117 ± 0.043; M -0.092 ± 0.069; G -0.154 ± 0.04
E50: I 0.068 ± 0.16; R -0.27 ± 0.068; A -0.21 ± 0.079; V -0.231 ± 0.035; M -0.641 ± 0.16; N -0.332 ± 0.095; G -0.228 ± 0.037; W -0.173 ± 0.12; H 0.003 ± 0.16; D -0.495 ± 0.11; T -0.535 ± 0.26; Q -0.064 ± 0.083
